According to patent US20060216339:

Assays:
[1] = system: purified recombinant Elk1 protein (Elk1-GST fusion protein) [GST: P08515]
[2] = system: recombinant mammalian ERK2 (MAPK p42 protein, bacterial recombinant, already containing phospho-tyrosine-185)

purified recombinant Elk1 protein (Elk1-GST fusion protein) [GST: P08515], sequence (P08515 whole entry, looked up, the tested form may be a part): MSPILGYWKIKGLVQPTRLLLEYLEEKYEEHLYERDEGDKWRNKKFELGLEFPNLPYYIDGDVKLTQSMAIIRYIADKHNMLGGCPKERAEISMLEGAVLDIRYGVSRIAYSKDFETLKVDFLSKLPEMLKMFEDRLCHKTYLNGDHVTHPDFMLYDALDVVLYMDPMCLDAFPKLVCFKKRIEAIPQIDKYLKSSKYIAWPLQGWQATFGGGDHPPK

Row | Substance | phosphorylation of Elk1 at Ser^383 (Western blot with Ab^pElk1) [1] | ERK2 activity (production of phospho-Elk1) [2]
1 | ERK2 activated by apPKG (doubly phosphorylated, T183 and Y185) | ERK2 activity was measured by the phosphorylation of Elk1 at Ser^383 | –
2 | active apMAPK (phospho-apMAPK, dually phosphorylated at the T-E-Y site) | the apPKG-activated ap-MAPK phosphorylated its physiological substrate, Elk1, at the appropriate Ser^383 | –
3 | MEK1 (MAP kinase kinase 1)-GST fusion protein, activated by the catalytic subunit of MEKK1 | – | MEK1, which produces the maximally activated kinase
